Experimental data published in the DeepSol protein solubility set.

Test: soluble on expression in E. coli; label from the status in PepcDB or PDB records

Row | Sequence | soluble on expression in E. coli
1 | MGSDKIHHHHHHMKNLFLYCRAGYEKDCAAEIQQRAAELGIGGFVKANRDDAYVVFQGFSPDDGDRLAKELPLDSLIFARQMFACGDLLDDFSPEDRVTPIAESLTEVERAGELRVETPDTNEAKELSAFCRKFTVPLRQALKKRGVLLDKESSRRPIVHVCFVAPNKAFTGYSLSNNSSPHFMGIPRLKFPADAPSRSTLKLDEAFIHFIPREEHETRLRSGLNAVDLGACPGGWTYQLVRRGMMVHAIDNGPMNHDLMETGQVTHHRADGFKFEPARRNIYWLVCDMVEKPARVAELMEYWAIQGWFKEAIFNLKLPMKSRYKEVSQILANMHAILKENGIHEFHLACKHLYHDRDEVTVHLWLRPSSPWI | not soluble
2 | MSLLMIIDCHGHYTVLPKAHDEWREQQKAAFKAGQPAPPYPEISDDEIRETIEANQLRLIKERGADMTIFSPRASAMAPHVGDQSVAVPWAQACNNLIARVVDLFPETFAGVCMLPQSPEADMTSSIAELERCVNELGFIGCNLNPDPGGGHFKHPPLTDRFWYPFYEKMVELDVPAMIHVSGSCNPAMHATGAYYLAADTIAFMQLLQGNLFADFPTLRFIIPHGGGAVPYHWGRFRGLADMLKQPSLDTLLMNNVFFDTCVYHQPGINLLADVIDNKNILFGSEMVGAVRGIDPTTGHYFDDTKRYIDALDISDQERHAIFEGNTRRVFPRLDAKLKAREGHHHHHH | soluble
3 | SNAMPKRSKEDTEITIQKIMDAVVDQLLRLGYDKMSYTTLSQQTGVSRTGISHHFPKKTDFTAALDGRIFKMFIEHLEFEKGLDAFSQSWIKALEDSEFLAILRLLFHHIVTSESAHEFAANGIDRLYKMVESQFGSGGDKELEWLIGRSLIQMSK | soluble
4 | MAHHHHHHMKPKIPFIIEIFSSFGDNYSTNYIEKEMNLDIMNVVKNYDLDTLVEENKEANGTPHVTVDDAVDQIMDRFYDCSVFHKIILLDVSILFERVE | not soluble
5 | GMSSKQHCVKLNDGHLIPALGFGTYKPKEVPKSKSLEAACLALDVGYRHVDTAYAYQVEEEIGQAIQSKIKAGVVKREDLFVTTKLWCTCFRPELVKPALEKSLKKLQLDYVDLYIMHYPVPMKSGDNDFPVNEQGKSLLDTVDFCDTWERLEECKDAGLVKSIGVSNFNHRQLERILNKPGLKYKPVCNQVECHLYLNQRKLLDYCESKDIVLVAYGALGTQRYKEWVDQNSPVLLNDPVLCDVAKKNKRSPALIALRYLIQRGIVPLAQSFKENEMRENLQVFGFQLSPEDMKTLDGLNKNFRYLPAEFLVDHPEYPFVEEY | soluble
6 | MKETVTMLNQQYVVPEGLQPYQGVTANSPWLASETEKRRRKICDSLEEAIRRSGLKNGMTISFHHAFRGGDKVVNMVMAKLAEMGFRDLTLASSSLIDAHWPLIEHIKNGVVRQIYTSGLRGKLGEEISAGLMENPVQIHSHGGRVKLIQSGELNIDVAFLGVPCCDEFGNANGFSGKSRCGSLGYAQVDAQYAKCVVLLTEEWVEFPNYPASIAQDQVDLIVQVDEVGDPEKITAGAIRLSSNPRELLIARQAANVIEHSGYFCDGFSLQTGTGGASLAVTRFLEDKMRRHNITASFGLGGITGTMVDLHEKGLIKALLDTQSFDGDAARSLAQNPHHIEISTNQYANPASKGAACERLNVVMLSALEIDVNFNVNVMTGSNGVLRGASGGHSDTAAGADLTIITAPLVRGRIPCVVEKVLTTVTPGASVDVLVTDHGIAVNPARQDLLDNLRAAGVALMTIEQLQQRAEQLTGKPQPIEFTDRVVAVVRYRDGSVIDVIRQVKG | soluble
7 | MGSDKIHHHHHHMTKKRIFVTGASGCIGHYISETLIQETDYELYLLVRNPSKLQVDTQIRPGITVLQGDMQNISQFADLLSTIDIAVLTATAWGGEQTFDINVSKTIELLNLLDPDRCQQVIYFSTASVLDSHNQPLKEAGEIGTDYIRSKYECLHKISELGIASKITTVFPTLVLGGDSKKPYSHLTSGIPEVTKYVNLIRFLQADGSFHFIHGKDIASVVKYLIVNPPQENTSRRLVLGQKRLTANQAIEEVCTYLGKKISFRIPLSLSLANLIIAVFRIQMADWDRFCMNYRHFTYDTVINPDSFGLPNYCATMSDVLKISGVDSSHQ | not soluble
8 | MSLSTTPGLYAVIKLTHLYLPGTLKIHHLKGQLLDQFSIGEMEYQHQGTKIKIFNLAVNWRFSSLLHKKLPIDSMSAEMIEINQKTPMLILKNIKLSGYLNQQSIKLNTLQFNYWNQLITSQLELSNSFPHVFSGKIRLNPHSTNKNIFSGGVDIGGNRNQIQWGGEFEGPGKITINGSLQQLKQIKQIIKWRDLHWQDNKNHNLKSSQGRIEVSGTIPNLAIDLKSKLGIDQLKNWQMNAAIKGKLPWQWNINATFSQPLDFSSKLDGLYTKFALKMETKNDHHADFLITIAPGHYQMTENNLMPLIQFTGGNIKGSLSQKQFSGQGVLFLDAYKKVNFNFKFPEFNVYQDIAQQTIDAKLSILFNSLDFLQNASPYLINPKGQFLASIHAKGTLNKPIIESKLALNKGSFNIPALGLNITDMVLAVFSKKDGWEATGSIHSSEKKLTLKGQGIFNKELGGTVSIEGSNFPIANNKEFQVNISPQLQVRFTPSLCQITGTIQIPNAHIKPQTFTNSLVATDDIVFTSKNTQPITPLFNTNMSVRVEMGEEVELTFKGLHAYLAGIVTINQLSQGPITANGELTVRKGEYKAYGQDLSIEQGQLIFTGGRIDNPEINLRASKNISNSFGSVSGSSELFNFNNYNNLNVGNNFNVGVEVAGRLQSPKIQLFSNPPTLSQADILSFLVIGRPANQADKAKGQLLLTAISSMNLGTGTNGTQLLEQLKQKLGFDFNVQTTTNFNQQTNKISESTGVVVGKSLSDRIYLSYNVGLSQTDPNVLTLKYILNKFLSIQVSSSDSGNGVDILYTKSTSSPEEGHHHHHH | not soluble
9 | AMVSVSGIRKVQRAEGPATVLAIGTANPPNCVDQSTYADYYFRVTNSEHMTDLKKKFQRICERTQIKNRHMYLTEEILKENPNMCAYKAPSLDAREDMMIREVPRVGKEAATKAIKEWGQPMSKITHLIFCTTSGVALPGVDYELIVLLGLDPSVKRYMMYHQGCFAGGTVLRLAKDLAENNKDARVLIVCSENTSVTFRGPSETDMDSLVGQALFADGAAAIIIGSDPVPEVENPLFEIVSTDQQLVPNSHGAIGGLLREVGLTFYLNKSVPDIISQNINDALSKAFDPLGISDYNSIFWIAHPGGRAILDQVEEKVNLKPEKMKATRDVLSNYGNMSSACVFFIMDLMRKKSLEAGLKTTGEGLDWGVLFGFGPGLTIETVVLRSMAI | soluble
10 | VCEKGFEAGDNKLGGALNAKHVEKYGDNFKNGMHKPEFHEDGLHKPMEVGGKKFESGFHYLLECHELGGKNASGGYGGPLCEDPYGSEVQAMTEKLLKEADSDRTLCFNNFQDPCPQLTKEQVAMCKGFDYGDKTLKLPCGPLPWPAGLPEPGYVPKTNPLHGRWITVSGGQAAFIKEAIKSGMLGAAEANKIVADTDHHQTGGMYLRINQFGDVCTVDASVAKFARAKRTWKSGHYFYEPLVSGGNLLGVWVLPEEYRKIGFFWEMESGRCFRIERRAFPVGPYTFMRQATEVGGKISFVFYVKVSNDPESDPIPLQSRDYTALAGRDNAPTNLGKPYPTLAKDLDYPKKRDGWLEKNEKEMLRQRNIVSSTF | soluble
11 | MLTDLSIRNLAIIDSLHVSFDRGLTVLTGETGAGKSIIIDAVNLIMGGRASAELVRTGEEEATVEALFSLPTDAPLGQRLAAMGLDCDGELLVKRVVSRSGRNRVFIGGGLSTLAMLSDISRELVNIYGQHESQTLLRPENHLRLLDGFAGLDSLRADYAAIFDRYRETEARLRELDEGEREAARRLDLLSFQVEEIHAAALAPGEEEALAGERELLVNAERLSRGSEEAYEALYGDESSVLHLLARVKGRVAEISGVDASLAPLLDVVESAAAQLEDAALTLRGYGARIEADPARLEAVDERLDLIRRLKKKYAPTVEEIIAYGEEAAREMELLLNRDRTRSDLDRELETLAGRVRETGHGLSAKRHEAAKRLKAAMEREIHELAMKHALFDVAFEELPEPRQTGLDSVTFLFSPNPGEEPKPLARIASGGELSRLMLALKQVHPESDVPTLIFDEVDTGIGGATSALVGEKLKRVSRAQQVLCITHHPQVAAFADRHYKVEKRVEGGRTATAVTPLEGEDRVAEMARMLGGVTITGTTLDHAREMIEGARRAAVGG | not soluble
12 | GPGSMHAAPYEEVALSDMLLEDGKLRYPCPCGDLFELSLSEFAKGSVVAECPTCSLTVRIICNEEERHAFLLRCNALNGVRDVVIA | not soluble
13 | MKTNSEELTVFVQVVESGSFSRAAEQLAMANSAVSRIVKRLEEKLGVNLLNRTTRQLSLTEEGAQYFRRAQRILQEMAAAETEMLAVHEIPQGVLSVDSAMPMVLHLLAPLAAKFNERYPHIRLSLVSSEGYINLIERKVDIALRAGELDDSGLRARHLFDSRFRVIASPEYLAKHGTPQSTEELAGHQCLGFTEPGSLNTWAVLDAQGNPYKISPHFTASSGEILRSLCLSGCGIVCLSDFLVDNDIAEGKLIPLLAEQTSDKTHPFNAVYYSDKAVNLRLRVFLDFLVEELGNNLCGKHHHHHH | soluble
14 | MSDHENTGENTSEYQYKQPPQKSIDELLNADKEDESLKVYKAKLLGQGTVIVDEKNPLRVIVRSVELLINGKTAQSFDLSDPAKLVNSDLSVSIKEGSNYRLSFAFHVQREITSGLHYKHKVKRSGITVENEKYMMGSYAPKLEIQEYKSPNEEAPSGMMHRGKYKVYSKITDDDNNVYLDWQWTLHITKE | not soluble
15 | MSLSNQEPIANYKFNYKTTANKVMKNINLSGKTIIITGGYSGIGLEMTKQLSRAGAKIIIPARRMEVAKKNLSKIKNIDILPLDLTNPESIHQFAESFLQNNSKLDILINSAGLMYLPLKRDSRGIEYHFATNHLGHYQLTLELLPALKNAKISRVINLSSRAQQMTPLLEDWNFEKIENYNPQIGYQQSKTANVLFSIKLDELGKKYGIRSFAVHPGMIPMTNIGRQNSPITPWLRYLADYFKLIHIPVFFNALKSGFDRSKYRYLKTIAQGAATPLWASTSPDLEGKGGLYCEDLNIARLMTSEEANNFSGGLRPHAIDHNDADRLWQISKNITGLDEGHHHHHH | not soluble
16 | MTTLKVKQLANKKGLNILEDSIEINESGVDFQVAHVTEQNGDKWILRIPRRPESMRHALREKEALEIMKKHAAFQVPNWSIFSEELIAYKQLSGFPAATIDIEQQKYVWNFNEKNVPTEYYISLGKVLANVHSLSQQKFNNIGVEILTANELRTSMKQRMNRVKEQYHINQNLWDRWQAWLAEDSFWPSHVGVKHGDIHPGHILIDKKNNVTGLIDWTEVGIGDVSIDFTSHYLLFGKDGLTKLIHSYDNAGGKTWSRMDEHIIELLTTSSITVAEYAQVSGLKDMHEAAIHMLATEC | not soluble
17 | MGSDKIHHHHHHMNIKQLHYFLVVAEEKQITAAAKRLYIAQPPLSYQLKQLEKELGAQLFKRTAHGIELTDAGQTLQSYASEILSLAQNAKNQVHKTISGELGTVAMGIVSSSTGYMPIAAFKELTQFYPEINFDIYEDNTFGVLDKLEKKTIDMGIVRTPYNRTGLNAKTLTTEKMMAVTNDITLLHKKELRIEDLKDQPLIIYRRFEEMFNQTFAHHGIKPFYAMKCDDSRTAITWAKQNMGLALVPESIATTYAKNKMIAVKHVNWITHLQLVWRKDQIVTPLMKKIISLVK | not soluble
18 | VQQLSLFGSIGDDGYDLLISTLTTISGNPPLLYNSLCTVWKPNPSYDVENVNSRNQLVEPNRIKLSKEVPFSYLIDETMMDKPLNFRILKSFTNDKIPLNYAMTRNILHNTVPQVTNFNSTNEDQNNSKHTEDTVNESRNSDDIIDVDMDASPAPSNESCSPWSLQISDIPAAGNNRSVSMQTIAETIILSSAGKNSSVSSLMNGLGYVFEFQYLTIGVKFFMKHGLILELQKIWQIEEAGNSQITSGGFLLKAYINVSRGTDIDRINYTETVLMNLKKELQGYIELSVPDRQSMDSRVAHGNILIAAALEHHHHHH | soluble
